Source: US20240270846A1 (published 2024)
Residue numbers refer to the chain shown, from its start.

B1: CE115HA000 H chain altered form K52W (antibody, human IgG1, kappa, L234A L235A, N297A, name in Kabat numbering)
heavy: QVQLVESGGGVVQPGRSLRLSCAASGFTFSNAWMHWVRQAPGKGLEWVAQIWAKSNNYATYYAESVKGRFTISRDDSKNSLYLQMNSLKTEDTAVYYCRYVHYGAYYGVDAWGQGTTVTVSSASTKGPSVFPLAPSSKSTSGGTAALGCLVKDYFPEPVTVSWNSGALTSGVHTFPAVLQSSGLYSLSSVVTVPSSSLGTQTYICNVNHKPSNTKVDKKVEPKSCDKTHTCPPCPAPEAAGGPSVFLFPPKPKDTLMISRTPEVTCVVVDVSHEDPEVKFNWYVDGVEVHNAKTKPREEQYASTYRVVSVLTVLHQDWLNGKEYKCKVSNKALPAPIEKTISKAKGQPREPQVYTLPPSRCELTKNQVSLSCAVKGFYPSDIAVEWESNGQPENNYKTTPPVLDSDGSFFLVSKLTVDKSRWQQGNVFSCSVMHEALHNHYTQKSLSLSPDYKDDDDK
chain: EPKSSDKTHTCPPCPAPELLGGPSVFLFPPKPKDTLMISRTPEVTCVVVDVSHEDPEVKFNWYVDGVEVHNAKTKPREEQYNSTYRVVSVLTVLHQDWLNGKEYKCKVSNKALPAPIEKTISKAKGQPREPQVCTLPPSRDELTKNQVSLWCLVKGFYPSDIAVEWESNGQPENNYKTTPPVLDSDGSFFLYSKLTVDKSRWQQGNVFSCSVMHEALHNRYTQKSLSLSP
light: DIVMTQSPLSLPVTPGEPASISCRSSQSLVHSNRNTYLHWYQQKPGQAPRLLIYKVSNRFSGVPDRFSGSGSGTDFTLKISRVEAEDVGVYYCGQGTQVPYTFGQGTKLEIKRTVAAPSVFIFPPSDEQLKSGTASVVCLLNNFYPREAKVQWKVDNALQSGNSQESVTEQDSKDSTYSLSSTLTLSKADYEKHKVYACEVTHQGLSSPVTKSFNRGEC
notes: one-arm antibody
B2: CE115HA000 H chain altered form K52bQ (antibody, human IgG1, kappa, L234A L235A, N297A, name in Kabat numbering)
heavy: B1 heavy with W52K, K54Q
chain: B1 chain
light: B1 light
notes: one-arm antibody
B3: CE115HA000 H chain altered form N53I (antibody, human IgG1, kappa, L234A L235A, N297A, name in Kabat numbering)
heavy: B1 heavy with W52K, N56I
chain: B1 chain
light: B1 light
notes: one-arm antibody
B4: CE115HA000 H chain altered form N31F (antibody, human IgG1, kappa, L234A L235A, N297A, name in Kabat numbering)
heavy: B1 heavy with N31F, W52K
chain: B1 chain
light: B1 light
notes: one-arm antibody
B5: CE115HA000 H chain altered form N53D (antibody, human IgG1, kappa, L234A L235A, N297A, name in Kabat numbering)
heavy: B1 heavy with W52K, N56D
chain: B1 chain
light: B1 light
notes: one-arm antibody
B6: CE115HA000 H chain altered form K52bS (antibody, human IgG1, kappa, L234A L235A, N297A, name in Kabat numbering)
heavy: B1 heavy with W52K, K54S
chain: B1 chain
light: B1 light
notes: one-arm antibody
B7: CE115HA000 H chain altered form N31D (antibody, human IgG1, kappa, L234A L235A, N297A, name in Kabat numbering)
heavy: B1 heavy with N31D, W52K
chain: B1 chain
light: B1 light
notes: one-arm antibody
B8: CE115HA000 H chain altered form K52Y (antibody, human IgG1, kappa, L234A L235A, N297A, name in Kabat numbering)
heavy: B1 heavy with W52Y
chain: B1 chain
light: B1 light
notes: one-arm antibody
B9: CE115HA000 H chain altered form N31G (antibody, human IgG1, kappa, L234A L235A, N297A, name in Kabat numbering)
heavy: B1 heavy with N31G, W52K
chain: B1 chain
light: B1 light
notes: one-arm antibody
B10: CE115HA000 H chain altered form K52bL (antibody, human IgG1, kappa, L234A L235A, N297A, name in Kabat numbering)
heavy: B1 heavy with W52K, K54L
chain: B1 chain
light: B1 light
notes: one-arm antibody
B11: CE115HA000 H chain altered form K52bY (antibody, human IgG1, kappa, L234A L235A, N297A, name in Kabat numbering)
heavy: B1 heavy with W52K, K54Y
chain: B1 chain
light: B1 light
notes: one-arm antibody
B12: CE115HA000 H chain altered form K52bA (antibody, human IgG1, kappa, L234A L235A, N297A, name in Kabat numbering)
heavy: B1 heavy with W52K, K54A
chain: B1 chain
light: B1 light
notes: one-arm antibody
B13: CE115HA000 H chain altered form K52bN (antibody, human IgG1, kappa, L234A L235A, N297A, name in Kabat numbering)
heavy: B1 heavy with W52K, K54N
chain: B1 chain
light: B1 light
notes: one-arm antibody
B14: CE115HA000 H chain altered form N31A (antibody, human IgG1, kappa, L234A L235A, N297A, name in Kabat numbering)
heavy: B1 heavy with N31A, W52K
chain: B1 chain
light: B1 light
notes: one-arm antibody
B15: CE115HA000 H chain altered form N53Y (antibody, human IgG1, kappa, L234A L235A, N297A, name in Kabat numbering)
heavy: B1 heavy with W52K, N56Y
chain: B1 chain
light: B1 light
notes: one-arm antibody
B16: CE115HA000 H chain altered form N53W (antibody, human IgG1, kappa, L234A L235A, N297A, name in Kabat numbering)
heavy: B1 heavy with W52K, N56W
chain: B1 chain
light: B1 light
notes: one-arm antibody
B17: CE115HA000 H chain altered form N31Q (antibody, human IgG1, kappa, L234A L235A, N297A, name in Kabat numbering)
heavy: B1 heavy with N31Q, W52K
chain: B1 chain
light: B1 light
notes: one-arm antibody
B18: CE115HA000 H chain altered form N53G (antibody, human IgG1, kappa, L234A L235A, N297A, name in Kabat numbering)
heavy: B1 heavy with W52K, N56G
chain: B1 chain
light: B1 light
notes: one-arm antibody
B19: CE115HA000 H chain altered form N31H (antibody, human IgG1, kappa, L234A L235A, N297A, name in Kabat numbering)
heavy: B1 heavy with N31H, W52K
chain: B1 chain
light: B1 light
notes: one-arm antibody
B20: CE115HA000 H chain altered form N53K (antibody, human IgG1, kappa, L234A L235A, N297A, name in Kabat numbering)
heavy: B1 heavy with W52K, N56K
chain: B1 chain
light: B1 light
notes: one-arm antibody
B21: CE115HA000 H chain altered form N53Q (antibody, human IgG1, kappa, L234A L235A, N297A, name in Kabat numbering)
heavy: B1 heavy with W52K, N56Q
chain: B1 chain
light: B1 light
notes: one-arm antibody
B22: CE115HA000 H chain altered form N53S (antibody, human IgG1, kappa, L234A L235A, N297A, name in Kabat numbering)
heavy: B1 heavy with W52K, N56S
chain: B1 chain
light: B1 light
notes: one-arm antibody
B23: CE115HA000 H chain altered form N31S (antibody, human IgG1, kappa, L234A L235A, N297A, name in Kabat numbering)
heavy: B1 heavy with N31S, W52K
chain: B1 chain
light: B1 light
notes: one-arm antibody
B24: CE115HA000 H chain altered form N53A (antibody, human IgG1, kappa, L234A L235A, N297A, name in Kabat numbering)
heavy: B1 heavy with W52K, N56A
chain: B1 chain
light: B1 light
notes: one-arm antibody
B25: CE115HA000 H chain altered form N31K (antibody, human IgG1, kappa, L234A L235A, N297A, name in Kabat numbering)
heavy: B1 heavy with N31K, W52K
chain: B1 chain
light: B1 light
notes: one-arm antibody
B26: CE115HA000 H chain altered form K52bR (antibody, human IgG1, kappa, L234A L235A, N297A, name in Kabat numbering)
heavy: B1 heavy with W52K, K54R
chain: B1 chain
light: B1 light
notes: one-arm antibody
B27: CE115HA000 H chain altered form N31R (antibody, human IgG1, kappa, L234A L235A, N297A, name in Kabat numbering)
heavy: B1 heavy with N31R, W52K
chain: B1 chain
light: B1 light
notes: one-arm antibody
B28: CE115HA000 H chain altered form N31Y (antibody, human IgG1, kappa, L234A L235A, N297A, name in Kabat numbering)
heavy: B1 heavy with N31Y, W52K
chain: B1 chain
light: B1 light
notes: one-arm antibody
B29: CE115HA000 H chain altered form N54A (antibody, human IgG1, kappa, L234A L235A, N297A, name in Kabat numbering)
heavy: B1 heavy with W52K, N57A
chain: B1 chain
light: B1 light
notes: one-arm antibody
B30: CE115HA000 H chain altered form K52bD (antibody, human IgG1, kappa, L234A L235A, N297A, name in Kabat numbering)
heavy: B1 heavy with W52K, K54D
chain: B1 chain
light: B1 light
notes: one-arm antibody
B31: CE115HA000 H chain altered form N31W (antibody, human IgG1, kappa, L234A L235A, N297A, name in Kabat numbering)
heavy: B1 heavy with N31W, W52K
chain: B1 chain
light: B1 light
notes: one-arm antibody
B32: CE115HA000 H chain altered form N31I (antibody, human IgG1, kappa, L234A L235A, N297A, name in Kabat numbering)
heavy: B1 heavy with N31I, W52K
chain: B1 chain
light: B1 light
notes: one-arm antibody
B33: CE115HA000 H chain altered form N53H (antibody, human IgG1, kappa, L234A L235A, N297A, name in Kabat numbering)
heavy: B1 heavy with W52K, N56H
chain: B1 chain
light: B1 light
notes: one-arm antibody

Target: T1, CD3 epsilon homodimer protein (UniProt P07766 23-126)
T1 construct: also called CD3 (CD3 epsilon)
Test: SPR Biacore T200, CD3 epsilon homodimer on chip, antibody as analyte;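 further: homodimer amine-coupled to a CM4 sensor chip, run at 25 °C in HBS-EP+ buffer, with kinetic parameters derived in Biacore T200 Evaluation Software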
Protocol: An appropriate amount of CD3 epsilon homodimer protein was immobilized onto Sensor chip CM4 (GE Healthcare Japan Corp.) by the amine coupling method. Then, the antibody having an appropriate concentration was injected thereto as an analyte and allowed to interact with the CD3 epsilon homodimer protein on the sensor chip. Then, the sensor chip was regenerated by the injection of 10 mmol/L glycine-HCl (pH 1.5). The assay was conducted at 25 degrees C., and HBS-EP+(GE Healthcare Japan Corp.) was used as a running buffer. […] Each parameter was calculated using Biacore T200 Evaluation Software (GE Healthcare Japan Corp.).
Specifically, when the amount of the antibody comprising CE115HA000 bound was defined as X and the amount of the H chain one-amino acid altered form bound was defined as Y, a value of Z (ratio of amounts bound)=Y/X was used.

T1 sequence (P07766 23-126): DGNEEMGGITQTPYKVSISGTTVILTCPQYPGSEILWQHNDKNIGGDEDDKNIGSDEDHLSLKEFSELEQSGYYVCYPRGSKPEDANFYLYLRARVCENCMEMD

KD ratio (KD of CE115HA000 / KD of altered form)	Binder
2.69	B1
0.62	B2
0.57	B3
1.24	B4
0.55	B5
0.58	B6
1.14	B7
6.47	B8
1.37	B9
0.61	B10
0.61	B11
0.58	B12
0.43	B13
0.96	B14
0.94	B15
0.69	B16
0.94	B17

KD ratio (KD of CE115HA000 / KD of altered form)	Binder
0.95	B18
0.96	B19
0.79	B20
1.05	B21
0.59	B22
0.67	B23
0.55	B24
0.97	B25
0.91	B26
0.98	B27
1.1	B28
0.58	B29
0.56	B30
1.07	B31
0.62	B32
0.55	B33
